Results taken from patent US20230295597.
Substitutions are numbered along the chain they refer to.

What was measured:
[1] = molecular target: T1, trADAMTS-13^V313A (truncated ADAMTS-13 mutant, Val313 to Ala)
T1 chain: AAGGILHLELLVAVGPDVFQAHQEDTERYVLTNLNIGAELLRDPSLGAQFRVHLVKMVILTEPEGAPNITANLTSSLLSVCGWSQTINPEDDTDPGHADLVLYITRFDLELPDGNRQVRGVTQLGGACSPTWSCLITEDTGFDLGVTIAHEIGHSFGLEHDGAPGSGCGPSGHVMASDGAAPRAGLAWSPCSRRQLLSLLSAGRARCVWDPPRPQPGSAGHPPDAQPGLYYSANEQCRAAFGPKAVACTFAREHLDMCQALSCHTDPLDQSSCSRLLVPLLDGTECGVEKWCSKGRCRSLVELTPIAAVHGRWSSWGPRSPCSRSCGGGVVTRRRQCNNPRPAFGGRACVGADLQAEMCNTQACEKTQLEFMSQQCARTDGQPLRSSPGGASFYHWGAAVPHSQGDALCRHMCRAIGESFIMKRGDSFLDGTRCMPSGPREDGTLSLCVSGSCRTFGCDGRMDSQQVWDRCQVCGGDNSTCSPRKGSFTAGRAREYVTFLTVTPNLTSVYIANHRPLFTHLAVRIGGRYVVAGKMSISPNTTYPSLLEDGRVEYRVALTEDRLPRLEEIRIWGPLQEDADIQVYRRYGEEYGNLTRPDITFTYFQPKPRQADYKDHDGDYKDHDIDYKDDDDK

[2] = molecular target: T2, trADAMTS-13^V313D (truncated ADAMTS-13 mutant, Val313 to Asp)
T2 chain: T1 chain with A239D

[3] = molecular target: T3, trADAMTS-13^R312A (truncated ADAMTS-13 mutant, Arg312 to Ala)
T3 chain: T1 chain with R238A, A239V

[4] = molecular target: T4, truncated recombinant human ADAMTS-13 variant (MDTCS), trADAMTS-13 WT
T4 chain: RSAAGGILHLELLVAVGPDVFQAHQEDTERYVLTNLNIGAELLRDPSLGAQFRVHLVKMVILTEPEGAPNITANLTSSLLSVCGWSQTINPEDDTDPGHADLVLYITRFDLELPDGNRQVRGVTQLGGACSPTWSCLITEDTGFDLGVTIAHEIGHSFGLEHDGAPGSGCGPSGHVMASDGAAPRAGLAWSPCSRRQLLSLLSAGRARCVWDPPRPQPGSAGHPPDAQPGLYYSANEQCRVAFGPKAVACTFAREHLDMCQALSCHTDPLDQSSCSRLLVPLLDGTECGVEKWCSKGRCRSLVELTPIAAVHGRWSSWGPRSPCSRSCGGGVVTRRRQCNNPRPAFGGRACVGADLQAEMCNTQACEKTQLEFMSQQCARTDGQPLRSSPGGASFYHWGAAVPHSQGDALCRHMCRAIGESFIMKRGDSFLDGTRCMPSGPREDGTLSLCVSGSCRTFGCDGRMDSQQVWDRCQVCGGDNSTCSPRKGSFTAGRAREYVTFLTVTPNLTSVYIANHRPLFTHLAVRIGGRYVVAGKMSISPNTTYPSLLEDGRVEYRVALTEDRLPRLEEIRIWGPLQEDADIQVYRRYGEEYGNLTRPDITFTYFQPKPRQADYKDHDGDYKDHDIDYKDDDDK

B1: tissue plasminogen activator (tPA) (protein)
chain: SYQVICRDEKTQMIYQQHQSWLRPVLRSNRVEYCWCNSGRAQCHSVPVKSCSEPRCFNGGTCQQALYFSDFVCQCPEGFAGKCCEIGNSDCYFGNGSAYRGTHSLTESGASCLPWNSMILIGKVYTAQNPSAQALGLGKHNYCRNPDGDAKPWCHVLKNRRLTWEYCDVPSCSTCGLRQYSQPQFRIKGGLFADIASHPWQAAIFAKHRRSPGERFLCGGILISSCWILSAAHCFQERFPPHHLTVILGRTYRVVPGEEEQKFEVEKYIVHKEFDDDTYDNDIALLQLKSDSSRCAQESSVVRTVCLPPADLQLPDWTECELSGYGKHEALSPFYSERLKEAHVRLYPSSRCTSQHLLNRTVTDNMLCAGDTRSGGPQANLHDACQGDSGGPLVCLNDGRMTLVGIISWGLGCGQKDVPGVYTKVTNYLDWIRDNMRP
residual proteolytic activity on vWF after 6 hours with or without tPA [1]: tPA inhibited the proteolytic activity of trADAMTS-13^R312A and trADAMTS-13^V313A variants on vWF (FIG. 8) | residual proteolytic activity on vWF after 6 hours with or without tPA [2]: trADAMTS-13^R312K and trADAMTS-13^V313D variants were resistant to inactivation by tPA | residual proteolytic activity on vWF after 6 hours with or without tPA [3]: tPA inhibited the proteolytic activity of trADAMTS-13^R312A and trADAMTS-13^V313A variants on vWF (FIG. 8) | ADAMTS-13 activity with or without preincubation with tPA (technozym kit) [4]: the activity of both trADAMTS-13 and ADAMTS-13 WT was reduced in the presence of tPA (FIG. 4B) | activity of trADAMTS-13 WT after 4 hr in soluble fibrin (2 uM) or PBS, without or with tPA (100 nM) [4]: The addition of soluble fibrin reversed the tPA-mediated reduction in ADAMTS-13 activity (FIG. 14A) | cleavage by tPA (Western blot) and residual proteolytic activity on vWF over time [4]: trADAMTS-13 was proteolyzed completely (FIG. 7A) and lost its catalytic activity (FIG. 7B) | cleavage of trADAMTS-13 (500 nM) by tPA (100 nM), Western blot [4]: in the presence of tPA, it is cleaved (FIG. 4C)
